Experiments:
[1] = Rat kyn-3-OHase activity expressed in X. laevis oocytes (conversion of L-kyn to 3-OH-Kyn); type: biochemical
Method: Individual oocytes of stages were obtained by gentle agitation in ND solution plus 1-2mg/ml collagenase for 60-90 min. They were then maintained at 18° C. in ND solution enriched with 1.8 mM CaCl2 and 20 mg/l gentamycin. Oocytes of stages 5 and 6 were injected 24 hours later with 50 nl RNA or water (N. Dascal and I. Lotan 1992. Methods in Mol. Biol. 13: 205-225).
Oocytes were injected with a Drummond Nanoject microdispenser. To avoid accidental injection into the nucleus, the needle was inserted close to the equator or in the vegetal (light) half of the oocytes. 1-3 days after injection the oocytes were assayed for kyn-3-OHase.
Plasmid DNA was isolated by standard procedures (alkaline lysis followed by a purification on Qiagen resin; Kontron Zurich). Plasmids were linearized with Not I and used for in vitro synthesis and capping of cRNA using T7 RNA polymerase (Stratagene) and following the supplier's instructions. Initially the library was divided into 25 pools of ~2000 colonies; cRNA obtained transcribing the insert of each pool of colonies was injected in the oocytes and screened for the expressed kyn-3-Ohase activity (See Example 1c for the methods). The positive pool identified for its kyn-3-OHase expressed activity (175 pmoles/h/mg protein: about 30 fold higher than that induced by the injection of total kidney poly (A)^+ RNA) was then split into several sub-pools and assayed with the same procedure.
Xenopus l. oocytes were first injected with 25 ng of poly(A)^+ RNA isolated from rat kidney.
Increasing doses (range 0.1-25 ng) of cRNA, obtained from the positive clone, were injected into oocytes which were then tested for kyn-3-OHase activity in the presence of 100 mM of L-kyn. A linear dose-dependent effect was observed up to 5 ng cRNA/oocyte. At this dose the kyn-3-OHase activity was 35.7 nmoles/h/mg protein. No further increase of the activity was measured when higher cRNA doses were injected.

[2] = Activity of recombinant kyn-3-OHase expressed in E. coli (conversion of L-kyn to 3-OH-Kyn); type: biochemical, human; details: cells induced 2 h at 37° C. with 1 mM IPTG; 500 μM L-kyn, 1 hour at 37° C.
Method: Recombinant kyn-3-OHase activity measured in cells grown at 37° C. until the OD600 reached 0.6, induced for 2 hours at 37° C. adding 1 mM IPTG was about 10 nmol/h·mg protein, enzymatic activity of uninduced cells in the same conditions was less than 5% (homogenates incubated for 1 hour at 37° C. with 500 μM L-kyn; see Example 5c).

[3] = 5 steps purification from rat liver (Nisimoto 1975); cited from earlier work
[4] = purified from rat liver (Nisimoto 1975); cited from earlier work
[5] = last round of library screening, cRNA-injected oocytes

B1: positive clone: cDNA clone encoding rat kyn-3-OHase, a deduced protein of 478 amino acid residues, expressed in Xenopus oocytes (protein)
chain: MASSDTEGKRVVVIGGGLVGALNACFLAKRNFQVDVYEAREDIRVANFMRGRSINLALSYRGRQALKAVGLEDQIVSKGVPMKARMIHSLSGKKSAIPYGNKSQYILSISREKLNKDLLTAVESYPNAKVHFGHKLSKCCPEEGILTMLGPNKVPRDITCDLIVGCDGAYSTVRAHLMKKPRFDYSQQYIPHGYMELTIPPKNGEYAMEPNCLHIWPRNAFMMIALPNMDKSFTCTLFMSFEEFEKLPTHSDVLDFFQKNFPDAIPLMGEQALMRDFFLLPAQPMISVKCSPFHLKSRCVLMGDAAHAIVPFFGQGMNAGFEDCLVFDELMDKFNNDLSVCLPEFSRFRIPDDHAISDLSMYNYIEMRAHVNSRWFLFQRLLDKFLHALMPSTFIPLYTMVAFTRIRYHEAVLRWHWQKKVINRGLFVLGSLVAIGSAYILVHHLSPRPLELLRSAWTGTSGHWNRSADISPRVPWSH
kyn-3-OHase activity, cRNA dose-response ([1]; 5 ng cRNA/oocyte, 100 mM of L-kyn): 35.7 nmoles/h/mg protein
activity vs that induced by injection of total rat kidney poly(A)+ RNA [1, 5]: about 400 fold
kyn-3-OHase activity, single positive clone [1, 5]: 3747 pmoles/h/mg protein

B2: Recombinant kyn-3-OHase: human kynurenine-3-hydroxylase, deduced protein of 486 amino acid residues, expressed in E. coli (protein, UniProt O15229 1-486, looked up)
Kynurenine 3-monooxygenase: MDSSVIQRKKVAVIGGGLVGSLQACFLAKRNFQIDVYEAREDTRVATFTRGRSINLALSHRGRQALKAVGLEDQIVSQGIPMRARMIHSLSGKKSAIPYGTKSQYILSVSRENLNKDLLTAAEKYPNVKMHFNHRLLKCNPEEGMITVLGSDKVPKDVTCDLIVGCDGAYSTVRSHLMKKPRFDYSQQYIPHGYMELTIPPKNGDYAMEPNYLHIWPRNTFMMIALPNMNKSFTCTLFMPFEEFEKLLTSNDVVDFFQKYFPDAIPLIGEKLLVQDFFLLPAQPMISVKCSSFHFKSHCVLLGDAAHAIVPFFGQGMNAGFEDCLVFDELMDKFSNDLSLCLPVFSRLRIPDDHAISDLSMYNYIEMRAHVNSSWFIFQKNMERFLHAIMPSTFIPLYTMVTFSRIRYHEAVQRWHWQKKVINKGLFFLGSLIAISSTYLLIHYMSPRSFLRLRRPWNWIAHFRNTTCFPAKAVDSLEQISNLISR
Recombinant kyn-3-OHase activity [2]: about 10 nmol/h·mg protein

B3: kyn-3-OHase: kyn-3-OHase isolated from the mitochondrial outer membrane of rat liver, molecular weight of 200,000 Da (protein)
chain: MASSDTEGKRVVVIGGGLVGALNACFLAKRNFQVDVYEAREDIRVANFMRGRSINLALSYRGRQALKAVGLEDQIVSKGVPMKARMIHSLSGKKSAIPYGNKSQYILSISREKLNKDLLTAVESYPNAKVHFGHKLSKCCPEEGILTMLGPNKVPRDITCDLIVGCDGAYSTVRAHLMKKPRFDYSQQYIPHGYMELTIPPKNGEYAMEPNCLHIWPRNAFMMIALPNMDKSFTCTLFMSFEEFEKLPTHSDVLDFFQKNFPDAIPLMGEQALMRDFFLLPAQPMISVKCSPFHLKSRCVLMGDAAHAIVPFFGQGMNAGFEDCLVFDELMDKFNNDLSVCLPEFSRFRIPDDHAISDLSMYNYIEMRAHVNSRWFLFQRLLDKFLHALMPSTFIPLYTMVAFTRIRYHEAVLRWHWQKKVINRGLFVLGSLVAIGSAYILVHHLSPRPLELLRSAWTGTSGHWNRSADISPRVPWSH
specific activity of purified enzyme [3]: 140 nmol/min/mg
isoelectric point [4]: 5.4 pH

Reference: patent US6107069A, “Recombinant kynurenine-3-hydroxylase enzyme and process for its preparation” (priority 1996, dated 2000)
